Test results reported in publication PMC5509211 (2017).
No end group written: not given here.

Assays:
[1] = target: actin filaments (endocytic patches) (Schizosaccharomyces pombe, UniProt P10989); assay: live-cell fluorescence titration
[2] = target: actin filaments (contractile ring) (Schizosaccharomyces pombe, UniProt P10989); assay: live-cell fluorescence titration

Kd [1]: 20 µM
Kd [2]: 6.2 µM
Binder: MGVADLIKKFESISKEE (also: mEGFP fusion) [mEGFP-Lifeact]
